From patent US20230242871A1, “GENERATION OF PRIMORDIAL GERM CELLS AND METHODS OF USING THE SAME” (The Board of Trustees of the Leland Stanfor Junior …, priority 2020, published 2023)

Test system: NANOS3-mCherry hESCs
Experiment: PGC differentiation of NANOS3-mCherry hESCs, flow cytometry for NANOS3-mCherry fluorescent reporter expression
Format: cell-based, human
Source text: In the NANOS3-mCherry hESC line, a 2A-mCherry fluorescent reporter was inserted immediately downstream of the NANOS3 gene without disrupting its coding sequence (Irie et al., 2014). In the SOX17-GFP hESC line, a GFP fluorescent reporter was inserted immediately after the SOX17 start codon, thus functionally invalidating one SOX17 allele (Wang et al., 2011). In the NANOG-2A-YFP hESC line, Cas9 RNP/AAV6-based genome editing (Martin et al., 2019) was used to insert a 2A-iCaspase9-2A-YFP fluorescent reporter immediately downstream of the NANOG gene without disrupting the NANOG coding sequence.
hPSC differentiation into PGCs. Undifferentiated hPSCs were maintained in mTeSR1 + 1% penicillin/streptomycin and enzymatically passaged (Accutase, 1:8-1:12 split) for differentiation. After overnight recovery in mTeSR1 + Thiazovivin (ROCK inhibitor, 5 µM), the following morning, hPSCs were briefly washed (DMEM/F12) and differentiated into posterior epiblast for 12 hours (100 ng/mL Activin + 3 µM CHIR99021 + 10 µM Y-27632) in aRB27 basal media, which comprised Advanced RPMI 1640 medium supplemented with 1% B27 supplement, 0.1 mM non-essential amino acids (NEAA), 100 U/ml Penicillin + 0.1 mg/ml Streptomycin, and 2 mM L-Glutamine (Kobayashi et al., 2017). Subsequently, […], […], […], 100 ng/mL SCF, 50 ng/mL EGF, 1 µM XAV939, and 10 µM Y-27632 for 24 hours (all in aRB27 basal media). For comparison, published PGC differentiation protocols (Sasaki et al., 2015; Kobayashi et al., 2017) were performed as described previously.
Flow cytometry and fluorescence-activated cell sorting (FACS) for cell-surface marker expression. hPSCs or their differentiated derivatives were dissociated using TrypLE Express (Gibco), were washed off the plate with FACS buffer (PBS + 0.1% BSA fraction V [Gibco] + 1 mM EDTA [Gibco] + 1% penicillin/streptomycin [Gibco]) and were pelleted by centrifugation (5 mins, 4° C.). Subsequently, cell pellets were directly resuspended in FACS buffer containing pre-diluted primary antibodies (listed below), thoroughly triturated to ensure a single cell suspension, and primary antibody staining was conducted for 30 mins on ice. Afterwards, cells were washed with an excess of FACS buffer and pelleted again, and this was conducted one more time. Finally, washed cell pellets were resuspended in FACS buffer containing 1.1 µM DAPI (Biolegend), and were strained through a 35 µm filter. Flow cytometry and sorting was conducted on a BD FACSAria II (Stanford Stem Cell Institute FACS Core).

B1: BMP4: bone morphogenetic protein 4, UniProt P12644 (protein, UniProt P12644 293-408, looked up)
Bone morphogenetic protein 4: SPKHHSQRARKKNKNCRRHSLYVDFSDVGWNDWIVAPPGYQAFYCHGDCPFPLADHLNSTNHAIVQTLVNSVNSSIPKACCVPTELSAISMLYLDEYDKVVLKNYQEMVVEGCGCR
**Q.** Which “efficiency upon BMP4 subtraction” value (BMP4 subtraction from D1.5-2.5, in BMP4 + SCF + EGF + XAV939 + Y-27632 D0.5-3.5, readout D3.5, FIG. 5C) does the source give for B1 here?
**A.** The value was “enhance efficiency”.

**Q.** What about the “efficiency on BMP4 titration” value (BMP4 titrated to 20 ng/mL on D0.5-3.5, monolayer, readout D3.5, FIG. 5D) of the same molecule?
**A.** The value was “without significant loss in efficiency”.

**Q.** What about the “differentiation of PGCs, BMP4 not omitted” value (continuous BMP4 in second phase, FIG. 5C) of the same molecule?
**A.** Its value is “about 10%”.

**Q.** What about the “differentiation of PGCs, BMP4 omitted” value (omitting BMP4 from the culture media for 24 hrs at day 2 of differentiation, FIG. 5C) of the same molecule?
**A.** Its value is ~30%.
